Source: publication PMC11969024 (2025)

B1: peptide HD2 (from tick evasin EVA4) / CCL22 (biotinylated, synthetic) (parent complex)
chain 1: EEDDYTAYAPLTCYFT
chain 2: GPYGANMEDSVCCRDYVRYRLPLRVVKHFYWTSDSCPRPGVVLLTFRDKEICADPRVPWVKMILNKLSQ

Variants of: B1

Row | Variant | enrichment
1 | chain 1 D4I | -7.79 log2 (difference from the parental peptide)
2 | chain 1 D4L | -6.02 log2 (difference from the parental peptide)
3 | chain 1 D4S | -6.14 log2 (difference from the parental peptide)
4 | chain 1 D4E | -1.08 log2 (difference from the parental peptide)
5 | chain 1 D4V | -8.27 log2 (difference from the parental peptide)
6 | chain 1 D3Y | -3.98 log2 (difference from the parental peptide)
7 | chain 1 D3L | -5 log2 (difference from the parental peptide)
8 | chain 1 D3T | -3.61 log2 (difference from the parental peptide)
9 | chain 1 D3K | -5.36 log2 (difference from the parental peptide)
10 | chain 1 D3S | -4.38 log2 (difference from the parental peptide)
11 | chain 1 D3F | -5 log2 (difference from the parental peptide)
12 | chain 1 D3P | -3.61 log2 (difference from the parental peptide)
13 | chain 1 D3M | -3.93 log2 (difference from the parental peptide)
14 | chain 1 D3N | -3.54 log2 (difference from the parental peptide)
15 | chain 1 D3V | -6.53 log2 (difference from the parental peptide)
16 | chain 1 D3I | -5.15 log2 (difference from the parental peptide)
17 | chain 1 A7Y | -1.54 log2 (difference from the parental peptide)
18 | chain 1 A7H | -1.29 log2 (difference from the parental peptide)
19 | chain 1 A7V | -3.51 log2 (difference from the parental peptide)
20 | chain 1 A7Q | 2.25 log2 (difference from the parental peptide)
21 | chain 1 A7M | 1.59 log2 (difference from the parental peptide)
22 | chain 1 A7G | 0.519 log2 (difference from the parental peptide)
23 | chain 1 A7D | 1.26 log2 (difference from the parental peptide)
24 | chain 1 A7L | -0.735 log2 (difference from the parental peptide)
25 | chain 1 T12Y | 2.35 log2 (difference from the parental peptide)

Row | Variant | enrichment
26 | chain 1 T12M | -0.275 log2 (difference from the parental peptide)
27 | chain 1 T12P | 2.6 log2 (difference from the parental peptide)
28 | chain 1 T12E | -7.95 log2 (difference from the parental peptide)
29 | chain 1 T12I | -0.506 log2 (difference from the parental peptide)
30 | chain 1 T12A | -0.997 log2 (difference from the parental peptide)
31 | chain 1 T12V | -0.299 log2 (difference from the parental peptide)
32 | chain 1 T12F | -1.02 log2 (difference from the parental peptide)
33 | chain 1 T12Q | 0.207 log2 (difference from the parental peptide)
34 | chain 1 L11E | 0.55 log2 (difference from the parental peptide)
35 | chain 1 L11A | -0.478 log2 (difference from the parental peptide)
36 | chain 1 L11C | 0.802 log2 (difference from the parental peptide)
37 | chain 1 L11K | 0.195 log2 (difference from the parental peptide)
38 | chain 1 L11H | 2.09 log2 (difference from the parental peptide)
39 | chain 1 L11P | -5.29 log2 (difference from the parental peptide)
40 | chain 1 L11S | 0.482 log2 (difference from the parental peptide)
41 | chain 1 L11G | -5.39 log2 (difference from the parental peptide)
42 | chain 1 L11F | 0.136 log2 (difference from the parental peptide)
43 | chain 1 L11M | 2.52 log2 (difference from the parental peptide)
44 | chain 1 L11D | -5.76 log2 (difference from the parental peptide)
45 | chain 1 L11R | 1.13 log2 (difference from the parental peptide)
46 | chain 1 L11N | -4.2 log2 (difference from the parental peptide)
47 | chain 1 A9M | -5.79 log2 (difference from the parental peptide)
48 | chain 1 A9R | 0.319 log2 (difference from the parental peptide)
49 | chain 1 A9E | -1.54 log2 (difference from the parental peptide)
50 | chain 1 A9Y | -6.66 log2 (difference from the parental peptide)

Row | Variant | enrichment
51 | chain 1 A9H | -6.63 log2 (difference from the parental peptide)
52 | chain 1 A9Q | -2.13 log2 (difference from the parental peptide)
53 | chain 1 A9T | -3.93 log2 (difference from the parental peptide)
54 | chain 1 T16N | 0.543 log2 (difference from the parental peptide)
55 | chain 1 T16E | 0.53 log2 (difference from the parental peptide)
56 | chain 1 T16P | 1.71 log2 (difference from the parental peptide)
57 | chain 1 T16Q | 1.11 log2 (difference from the parental peptide)
58 | chain 1 T16S | 1.36 log2 (difference from the parental peptide)
59 | chain 1 T16A | 1.77 log2 (difference from the parental peptide)
60 | chain 1 T16G | 1.83 log2 (difference from the parental peptide)
61 | chain 1 T16M | 0.731 log2 (difference from the parental peptide)
62 | chain 1 T16Y | -0.842 log2 (difference from the parental peptide)
63 | chain 1 T16H | 0.765 log2 (difference from the parental peptide)
64 | chain 1 T16V | -0.0944 log2 (difference from the parental peptide)
65 | chain 1 E1M | -0.805 log2 (difference from the parental peptide)
66 | chain 1 E1T | -2.09 log2 (difference from the parental peptide)
67 | chain 1 E1D | 2.17 log2 (difference from the parental peptide)
68 | chain 1 E1S | -1.77 log2 (difference from the parental peptide)
69 | chain 1 E1V | -1.89 log2 (difference from the parental peptide)
70 | chain 1 E1H | -2.89 log2 (difference from the parental peptide)
71 | chain 1 E1N | -1.54 log2 (difference from the parental peptide)
72 | chain 1 E1P | -2.84 log2 (difference from the parental peptide)
73 | chain 1 E1W | -2.09 log2 (difference from the parental peptide)
74 | chain 1 E1A | -1.32 log2 (difference from the parental peptide)
75 | chain 1 E1Q | -0.35 log2 (difference from the parental peptide)

Row | Variant | enrichment
76 | chain 1 E1K | -4.48 log2 (difference from the parental peptide)
77 | chain 1 E1G | -1.59 log2 (difference from the parental peptide)
78 | chain 1 E1L | -1.9 log2 (difference from the parental peptide)
79 | chain 1 P10Y | -6.98 log2 (difference from the parental peptide)
80 | chain 1 P10W | -5.26 log2 (difference from the parental peptide)
81 | chain 1 P10G | -7.9 log2 (difference from the parental peptide)
82 | chain 1 P10L | -7.92 log2 (difference from the parental peptide)
83 | chain 1 P10F | -9.41 log2 (difference from the parental peptide)
84 | chain 1 Y5M | -1.76 log2 (difference from the parental peptide)
85 | chain 1 Y5E | -3.48 log2 (difference from the parental peptide)
86 | chain 1 Y5V | -5.81 log2 (difference from the parental peptide)
87 | chain 1 Y5F | -1.41 log2 (difference from the parental peptide)
88 | chain 1 Y5A | -7.07 log2 (difference from the parental peptide)
89 | chain 1 Y5S | -6.78 log2 (difference from the parental peptide)
90 | chain 1 Y5C | -5.08 log2 (difference from the parental peptide)
91 | chain 1 Y5W | 1.1 log2 (difference from the parental peptide)
92 | chain 1 Y5I | -6.63 log2 (difference from the parental peptide)
93 | chain 1 Y5N | -6.71 log2 (difference from the parental peptide)
94 | chain 1 Y5L | -1.89 log2 (difference from the parental peptide)
95 | chain 1 T6E | 2.68 log2 (difference from the parental peptide)
96 | chain 1 T6D | 3.79 log2 (difference from the parental peptide)
97 | chain 1 T6N | 1.76 log2 (difference from the parental peptide)
98 | chain 1 T6R | -0.184 log2 (difference from the parental peptide)
99 | chain 1 T6H | -0.511 log2 (difference from the parental peptide)
100 | chain 1 T6C | -9.54 log2 (difference from the parental peptide)

Row | Variant | enrichment
101 | chain 1 T6P | -4.79 log2 (difference from the parental peptide)
102 | chain 1 T6M | -1.14 log2 (difference from the parental peptide)
103 | chain 1 T6V | -4.41 log2 (difference from the parental peptide)
104 | chain 1 T6G | 3.08 log2 (difference from the parental peptide)
105 | chain 1 T6I | -6.01 log2 (difference from the parental peptide)
106 | chain 1 T6K | -1.04 log2 (difference from the parental peptide)
107 | chain 1 T6Y | -1.26 log2 (difference from the parental peptide)
108 | chain 1 F15G | -2.74 log2 (difference from the parental peptide)
109 | chain 1 F15Y | 1.03 log2 (difference from the parental peptide)
110 | chain 1 F15K | 0.708 log2 (difference from the parental peptide)
111 | chain 1 F15M | 0.54 log2 (difference from the parental peptide)
112 | chain 1 F15C | -4.84 log2 (difference from the parental peptide)
113 | chain 1 F15D | -4.01 log2 (difference from the parental peptide)
114 | chain 1 F15H | 0.892 log2 (difference from the parental peptide)
115 | chain 1 F15T | 0.636 log2 (difference from the parental peptide)
116 | chain 1 F15I | -0.829 log2 (difference from the parental peptide)
117 | chain 1 F15V | 0.452 log2 (difference from the parental peptide)
118 | chain 1 F15L | -0.246 log2 (difference from the parental peptide)
119 | chain 1 F15A | 1.19 log2 (difference from the parental peptide)
120 | chain 1 F15P | -1.52 log2 (difference from the parental peptide)
121 | chain 1 Y14Q | -0.26 log2 (difference from the parental peptide)
122 | chain 1 Y14I | -0.881 log2 (difference from the parental peptide)
123 | chain 1 Y14T | 1.08 log2 (difference from the parental peptide)
124 | chain 1 Y14E | -6.44 log2 (difference from the parental peptide)
125 | chain 1 Y14L | -2.35 log2 (difference from the parental peptide)

Row | Variant | enrichment
126 | chain 1 Y14G | -4.12 log2 (difference from the parental peptide)
127 | chain 1 Y14S | 0.0467 log2 (difference from the parental peptide)
128 | chain 1 Y14W | -0.554 log2 (difference from the parental peptide)
129 | chain 1 Y14F | -0.133 log2 (difference from the parental peptide)
130 | chain 1 Y14P | -3.33 log2 (difference from the parental peptide)
131 | chain 1 Y14R | -0.04 log2 (difference from the parental peptide)
132 | chain 1 Y14M | -1.86 log2 (difference from the parental peptide)
133 | chain 1 Y8S | -8.74 log2 (difference from the parental peptide)
134 | chain 1 Y8W | -2.54 log2 (difference from the parental peptide)
135 | chain 1 Y8C | -9.68 log2 (difference from the parental peptide)
136 | chain 1 Y8V | -7.55 log2 (difference from the parental peptide)
137 | chain 1 C13G | -5.34 log2 (difference from the parental peptide)
138 | chain 1 C13D | -7.57 log2 (difference from the parental peptide)
139 | chain 1 C13P | -6.43 log2 (difference from the parental peptide)
140 | chain 1 C13W | -3.31 log2 (difference from the parental peptide)
141 | chain 1 C13Y | -2.53 log2 (difference from the parental peptide)
142 | chain 1 C13I | -3.42 log2 (difference from the parental peptide)
143 | chain 1 C13H | -3.89 log2 (difference from the parental peptide)
144 | chain 1 C13L | -6.36 log2 (difference from the parental peptide)
145 | chain 1 E2D | 1.62 log2 (difference from the parental peptide)
146 | chain 1 E2A | -2.53 log2 (difference from the parental peptide)
147 | chain 1 E2K | -5.15 log2 (difference from the parental peptide)
148 | chain 1 E2P | -5.46 log2 (difference from the parental peptide)
149 | chain 1 E2M | -2.95 log2 (difference from the parental peptide)
150 | chain 1 E2H | -3.64 log2 (difference from the parental peptide)
